According to publication PMC5877399 (Biomacromolecules, 2014):
Values belong to the binder of their own block, whether it stands above or below them. *: point of attachment. Ru(bipy)3 = tris(bipyridine)ruthenium complex attached to the Lys ε-amine via an NHS ester; Palmitoyl = CCCCCCCCCCCCCCCC(=O)*

T1: PA1-Gd(DO3A), palmitoyl-IAAAEEEEK(DO3A:Gd)-NH2 (not fully specified (residue 9); printed as palmitoyl-IAAAEEEEK(DO3A:Gd)-NH2; also: Gd complex of DO3A)
T1 peptide: Palmitoyl-IAAAEEEEK-NH2

B1: PA2-Gd(DO3A), palmitoyl-MAAAEEEEK(DO3A:Gd)-NH2 (peptide)
peptide: MAAAEEEEK
modifications: not fully specified; palmitoyl on the N-terminus; K(DO3A:Gd); C-terminal amide (NH2)

Tests used:
[1] = target: the molecule itself; test: circular dichroism spectroscopy
[2] = target: T1, PA1-Gd(DO3A), …; test: fluorescence polarisation
[3] = target: B1; test: fluorescence polarisation

Binder: B1
binding result [1]: binds

binding result [2]: binds
Binder: Palmitoyl-IAAAEEEEK(Ru(bipy)3)-NH2 (also: Ru(bipy)3 via NHS ester linker, Ru complex) [PA1-Ru(bipy)3, palmitoyl-IAAAEEEEK[Ru(bipy)3]-NH2]

binding result [3]: binds
Binder: Palmitoyl-MAAAEEEEK(Ru(bipy)3)-NH2 (also: Ru(bipy)3 via NHS ester linker, Ru complex) [PA2-Ru(bipy)3, palmitoyl-MAAAEEEEK[Ru(bipy)3]-NH2]
